{
  "source": "patent US20260183437A1",
  "about": "(ABDERA THERAPEUTICS, published 2026)",
  "binders": {"B1": {"name": "Rovalpituzumab (antibody, V domains shown)", "VH": "QVQLVQSGAEVKKPGASVKVSCKASGYTFTNYGMNWVRQAPGQGLEWMGWINTYTGEPTYADDFKGRVTMTTDTSTSTAYMELRSLRSDDTAVYYCARIGDSSPSDYWGQGTLVTVSS", "VL": "EIVMTQSPATLSVSPGERATLSCKASQSVSNDVVWYQQKPGQAPRLLIYYASNRYTGIPARFSGSGSGTEFTLTISSLQSEDFAVYYCQQDYTSPWTFGQGTKLEIK"}},
  "key": {"[1]": {"target": "T1, DLL3 on cells (UniProt Q9NYJ7 27-618, limits assumed)", "T1 construct": "whole, on cells; also called DLL3 on SHP-77, NCI-H82 (H82), NCI-H69 and HEK-DLL3 cells", "T1 sequence (looked up)": "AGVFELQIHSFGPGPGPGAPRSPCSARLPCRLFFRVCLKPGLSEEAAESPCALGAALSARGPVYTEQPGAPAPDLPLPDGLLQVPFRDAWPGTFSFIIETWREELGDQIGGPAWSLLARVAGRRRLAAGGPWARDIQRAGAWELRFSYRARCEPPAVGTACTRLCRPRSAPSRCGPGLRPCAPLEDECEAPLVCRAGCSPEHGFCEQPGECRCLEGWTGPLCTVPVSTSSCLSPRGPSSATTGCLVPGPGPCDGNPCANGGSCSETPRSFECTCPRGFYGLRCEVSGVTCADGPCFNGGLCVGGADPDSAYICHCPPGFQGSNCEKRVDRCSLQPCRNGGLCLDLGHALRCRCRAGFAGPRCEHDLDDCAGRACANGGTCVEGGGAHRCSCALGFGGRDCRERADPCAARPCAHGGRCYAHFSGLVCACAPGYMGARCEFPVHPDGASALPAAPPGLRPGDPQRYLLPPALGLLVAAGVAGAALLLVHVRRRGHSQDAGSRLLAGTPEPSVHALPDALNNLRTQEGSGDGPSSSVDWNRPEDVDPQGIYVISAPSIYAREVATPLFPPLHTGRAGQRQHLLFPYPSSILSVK", "assay": "flow cytometry on SHP-77 cells"}, "[2]": {"target": "T1, DLL3 on cells", "assay": "flow cytometry on HEK-DLL3 cells"}},
  "data": [
    {"binder": "B1", "values": [
      {"measurement": "EC50", "setting": "[1]", "value": 0.11, "unit": "nM"},
      {"measurement": "EC50", "setting": "[2]", "value": 0.06, "unit": "nM"}
    ]}
  ]
}
